Assay results published in patent US11078245B2, “Colon and pancreas cancer peptidomimetics” (PRECISION BIOLOGICS, INC., priority 2010, dated 2021).

Assays:
[1] = test system: human AsPC-1 pancreas tumor; experiment: AsPC-1 pancreas tumor xenograft model; type: in vivo, nude mice; conditions: 200 μg ip
Experimental: The NEO-101 antibody was tested for anti-tumor activity using the human AsPC-1 pancreas tumor xenograft model in nude mice. In this activity model, mice were implanted with human AsPC-1 tumor cells and allowed to establish to approximately 20-50 mm^3, measurable with a caliper in approximately 4-6 days. The treatment regimen included intraperitoneal injection of 200 μg of research-grade NEO-101 or a negative control human IgG (Pierce), followed on the next day with an intraperitoneal injection of IL-2-activated normal human PBMCs (approximately 2×10^7 per mouse per injection). Two cycles of treatment were administered such that antibody injections occurred on days 5 and 8, and PBMC injections occurred on days 6 and 9 in this study. Throughout the study, the tumor growth was monitored twice weekly by measurement with a caliper. Tumor volume was calculated using the equation: […], in units of cubic millimeters. If a tumor reached approximately 800 mm^3, or became ulcerated or necrotic, the mouse was humanely sacrificed. The study was terminated on study day 35.
This anti-tumor activity study was repeated in a separate study using the same AsPC-1 pancreas tumor model and the 200 μg dose of NEO-101 antibody. However, in the second study, four cycles of treatment were administered instead of two cycles. […]

CFPAC1 cells = experiment: NEO-101-coupled Dynal beads rosette assay; type: cell-based, human; conditions: antibody-coupled Dynal beads with TBS, no M13 clone
Experimental: The M13 clones identified by the biopanning were also immunoassayed using magnetic beads. Aliquots of 5 μl M13 phage (10^11/10 μl) were mixed with 10 μl NEO-101-coupled Dynal® beads at RT for 20 min on a rotator. CFPAC1 cells (30 μl of 10^6 cells/ml) were added and incubated at 4° C. for 30 min. Rosetted cells were counted (>8 beads/cell).

CFPAC-1 (Pancreatic) = experiment: ADCC 4-hour 111-Indium release assay; type: cell-based, human
Experimental: (§1) The NEO-101 antibody was tested for antibody-dependent cell cytotoxicity (ADCC) activity against several colorectal and pancreatic tumor cell targets in vitro. The ADCC assay measures the amount of cell cytotoxicity that an antibody facilitates in a defined time period by the release of radiolabelled cytoplasmic proteins into the culture medium. […] The specific lytic activity was titratable with the number of effector cells in the assay.

SW620 (Colorectal) = experiment: ADCC 4-hour 111-Indium release assay; type: cell-based, human
Experimental: as §1

PANC-1 (Pancreatic) = experiment: ADCC 4-hour 111-Indium release assay; type: cell-based, human
Experimental: as §1

Colo-205 (Colorectal) = experiment: ADCC 4-hour 111-Indium release assay; type: cell-based, human
Experimental: as §1

SK-MEL (Melanoma) = experiment: ADCC 4-hour 111-Indium release assay; type: cell-based, human
Experimental: as §1

SW1463 (Colorectal) = experiment: ADCC 4-hour 111-Indium release assay; type: cell-based, human
Experimental: as §1

LS174T (Colorectal) = experiment: ADCC 4-hour 111-Indium release assay; type: cell-based, human
Experimental: as §1

AsPC-1 (Pancreatic) = experiment: ADCC 4-hour 111-Indium release assay; type: cell-based, human
Experimental: as §1

CFPAC-1 cells = experiment: Immunofluorescence staining with MUC5AC antibodies; type: cell-based, human; conditions: 2 μg/ml antibody
Experimental: LS174T and CFPAC-1 cells were grown on cover slips coated in FBS for 48 hours. Cells were then fixed with 4% PFA in PBS, washed with PBS, permeabilized with 0.2% Triton X-100, washed with PBS and blocked with 1% BSA in PBS. Cells were incubated with either 2 μg/ml NEO-101, MS-X, 2-11M1, H160, 351-450, 2-12M1, or 1-13M1. Cells were washed with PBS and then second antibody was added anti-human-FITC, anti-mouse-FITC or anti-rabbit-FITC (1:500), cells were washed and mounted on slides with DAPI hard mount. Cover slides were allowed to sit over night at 4° C. Slides were visualized with a Nikon Eclipse Ti microscope with an Andor camera.

B1: NEO-101: Chimeric NEO-101 antibody, engineered in CHO-DG44 production cell clone 4B7; targets a variant of MUC5AC (protein)
light: QVVLTQSPVIMSASPGEKVTMTCSASSSISYMYWYQQKPGTSPKRWIYDTSKLASGVPARFSGSGSGTSYSLTISNMEAGDAATYYCHQRDSYPWTFGGGTNLEIK
heavy: QVQLKESGPDLVAPSQSLSITCTVSGFSLSKFGVNWVRQPPGKGLEWLGVIWGDGSTSYNSGLISRLSISKENSKSQVFLKLNSLQADDTATYYCVKPGGDYWGHGTSVTVSS
[1]; four cycles, with PBMCs, significant from Day 18 (P=0.0044)
  tumor growth versus human IgG control: very similar growth inhibition
[1]; two cycles, with IL-2-activated human PBMCs, significant from day 13 (P=0.0072)
  tumor growth versus control groups: Tumor growth inhibition was observed
CFPAC1 cells
  Positive rosette cells (%): 41%
CFPAC-1 (Pancreatic); Effector:Target 12.5:1
  % Specific Killing (±SEM): 11.1 ± 1.6%
CFPAC-1 (Pancreatic); Effector:Target 25:1
  % Specific Killing (±SEM): 23.2 ± 2.2%
CFPAC-1 (Pancreatic); Effector:Target 50:1
  % Specific Killing (±SEM): 26.9 ± 1.6%
SW620 (Colorectal); Effector:Target 12.5:1
  % Specific Killing (±SEM): 51.5 ± 0.9%
SW620 (Colorectal); Effector:Target 25:1
  % Specific Killing (±SEM): 61.0 ± 1.8%
SW620 (Colorectal); Effector:Target 50:1
  % Specific Killing (±SEM): 63.7 ± 2.9%
PANC-1 (Pancreatic); Effector:Target 12.5:1
  % Specific Killing (±SEM): 21.2 ± 0.6%
PANC-1 (Pancreatic); Effector:Target 25:1
  % Specific Killing (±SEM): 33.2 ± 3.3%
PANC-1 (Pancreatic); Effector:Target 50:1
  % Specific Killing (±SEM): 46.8 ± 2.1%
Colo-205 (Colorectal); Effector:Target 12.5:1
  % Specific Killing (±SEM): 32.8 ± 2.0%
Colo-205 (Colorectal); Effector:Target 25:1
  % Specific Killing (±SEM): 46.4 ± 1.6%
Colo-205 (Colorectal); Effector:Target 50:1
  % Specific Killing (±SEM): 66.7 ± 0.6%
SK-MEL (Melanoma); Effector:Target 12.5:1
  % Specific Killing (±SEM): 2.3 ± 0.6%
SK-MEL (Melanoma); Effector:Target 25:1
  % Specific Killing (±SEM): 3.3 ± 1.1%
SK-MEL (Melanoma); Effector:Target 50:1
  % Specific Killing (±SEM): 4.6 ± 1.1%
SW1463 (Colorectal); Effector:Target 12.5:1
  % Specific Killing (±SEM): 17.9 ± 1.7%
SW1463 (Colorectal); Effector:Target 25:1
  % Specific Killing (±SEM): 25.5 ± 0.6%
SW1463 (Colorectal); Effector:Target 50:1
  % Specific Killing (±SEM): 33.8 ± 1.0%
LS174T (Colorectal); Effector:Target 12.5:1
  % Specific Killing (±SEM): 9.5 ± 0.5%
LS174T (Colorectal); Effector:Target 25:1
  % Specific Killing (±SEM): 18.5 ± 4.1%
LS174T (Colorectal); Effector:Target 50:1
  % Specific Killing (±SEM): 26.8 ± 2.9%
AsPC-1 (Pancreatic); Effector:Target 12.5:1
  % Specific Killing (±SEM): 26.5 ± 6.7%
AsPC-1 (Pancreatic); Effector:Target 25:1
  % Specific Killing (±SEM): 36.2 ± 2.6%
AsPC-1 (Pancreatic); Effector:Target 50:1
  % Specific Killing (±SEM): 44.5 ± 6.8%
CFPAC-1 cells
  cells stained: about 50%
